Measurements from publication PMC7048800.

How the values were obtained:
[1] = molecular target: T1, Long-HsNMT1 (human N-myristoyltransferase 1, residues 99-496) (human) (UniProt P30419)
T1 sequence: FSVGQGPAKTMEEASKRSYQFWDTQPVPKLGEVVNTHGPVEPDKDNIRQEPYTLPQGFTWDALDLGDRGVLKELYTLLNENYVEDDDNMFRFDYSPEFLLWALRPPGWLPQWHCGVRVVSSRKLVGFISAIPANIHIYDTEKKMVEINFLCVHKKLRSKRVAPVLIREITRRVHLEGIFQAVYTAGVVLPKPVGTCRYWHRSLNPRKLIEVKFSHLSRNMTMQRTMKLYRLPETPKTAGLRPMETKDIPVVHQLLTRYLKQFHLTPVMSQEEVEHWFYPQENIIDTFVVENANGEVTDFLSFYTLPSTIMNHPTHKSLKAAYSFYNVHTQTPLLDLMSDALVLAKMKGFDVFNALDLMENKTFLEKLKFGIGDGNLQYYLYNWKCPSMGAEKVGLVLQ

[2] = molecular target: HsNMT1ΔC3 (HsNMT1 variant with truncation of the last three amino acids) (human) (UniProt P30419)
[3] = molecular target: HsNMT1ΔC2 (HsNMT1 deletion variant with truncation of the last two amino acids) (human) (UniProt P30419)

Km for the peptide in the fluorescence-based coupled in vitro MYR assay with MyrCoA, 30 °C [1]: 18 µM | Km for the peptide in the fluorescence-based coupled in vitro MYR assay with MyrCoA, 30 °C [2]: 2140 µM | Km for the peptide in the fluorescence-based coupled in vitro MYR assay with MyrCoA, 30 °C [3]: 629 µM
B1: GlyCysSerValSerLysLysLys (SOS3) peptide (peptide)
peptide: GCSVSKKK
